Assay results reported in paper PMC2651776 (Nucleic Acids Research, 2009).

T1: MepR (Staphylococcus aureus, UniProt Q5Y812)
T1 sequence (Q5Y812 1-139): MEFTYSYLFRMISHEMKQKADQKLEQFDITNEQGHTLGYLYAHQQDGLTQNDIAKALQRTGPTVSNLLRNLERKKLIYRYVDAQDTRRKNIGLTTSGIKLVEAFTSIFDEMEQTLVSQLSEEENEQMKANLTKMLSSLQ

B1: mepA 26 bp (3'-truncated) (dsDNA)
DNA 1: TTATAGTTAGATATCTAATTGTTAGT
DNA 2: ACTAACAATTAGATATCTAACTATAA
B2: mepA 44 bp full site (dsDNA)
DNA 1: TTATAGTTAGATATCTAATTGTTAGTAAGCTAATTATTGGAAAA
DNA 2: TTTTCCAATAATTAGCTTACTAACAATTAGATATCTAACTATAA
B3: MepR (natural protein, Staphylococcus aureus)
chain: MEFTYSYLFRMISHEMKQKADQKLEQFDITNEQGHTLGYLYAHQQDGLTQNDIAKALQRTGPTVSNLLRNLERKKLIYRYVDAQDTRRKNIGLTTSGIKLVEAFTSIFDEMEQTLVSQLSEEENEQMKANLTKMLSSLQ
B4: mepR 26 bp site (dsDNA)
DNA 1: TATTTAGTTAGACATCTAACGAATGG
DNA 2: CCATTCGTTAGATGTCTAACTAAATA
B5: mepA 22 bp (3'-truncated) (dsDNA)
DNA 1: TTATAGTTAGATATCTAATTGT
DNA 2: ACAATTAGATATCTAACTATAA

Columns and labels:
MepR [1] = biological target: T1, MepR; type: binding
MepR [2] = biological target: MepR (Staphylococcus aureus, UniProt A0A0H3JPT9 1-139); experiment: fluorescence polarization
SEC = biological target: the molecule itself; experiment: SEC

Molecule	Kd (MepR [1])	Kd (MepR [2])	further results
N=C(N)c1ccc(-c2cc3ccc(C(=N)N)cc3[nH]2)cc1 [DAPI, 4′,6-diamidino-2-phenylindole]	4500 nM	–	–
CC[n+]1c(-c2ccccc2)c2cc(N)ccc2c2ccc(N)cc21 [ethidium]	2600 nM	–	–
CC/N=c1\cc2oc3cc(NCC)c(C)cc3c(-c3ccccc3C(=O)OCC)c-2cc1C [rhodamine 6G]	62600 nM	–	–
B1	–	15.3 nM	–
B2	–	6.3 nM	–
B3	–	–	stoichiometry N (SEC): 2
B4	–	24.3 nM	–
B5	–	46.4 nM	–
